{"source": "paper PMC9313406", "origin": "cited, not measured here", "target": "ACE2 (dimeric) (Homo sapiens) (UniProt Q9BYF1)", "sequence (Q9BYF1 18-740)": "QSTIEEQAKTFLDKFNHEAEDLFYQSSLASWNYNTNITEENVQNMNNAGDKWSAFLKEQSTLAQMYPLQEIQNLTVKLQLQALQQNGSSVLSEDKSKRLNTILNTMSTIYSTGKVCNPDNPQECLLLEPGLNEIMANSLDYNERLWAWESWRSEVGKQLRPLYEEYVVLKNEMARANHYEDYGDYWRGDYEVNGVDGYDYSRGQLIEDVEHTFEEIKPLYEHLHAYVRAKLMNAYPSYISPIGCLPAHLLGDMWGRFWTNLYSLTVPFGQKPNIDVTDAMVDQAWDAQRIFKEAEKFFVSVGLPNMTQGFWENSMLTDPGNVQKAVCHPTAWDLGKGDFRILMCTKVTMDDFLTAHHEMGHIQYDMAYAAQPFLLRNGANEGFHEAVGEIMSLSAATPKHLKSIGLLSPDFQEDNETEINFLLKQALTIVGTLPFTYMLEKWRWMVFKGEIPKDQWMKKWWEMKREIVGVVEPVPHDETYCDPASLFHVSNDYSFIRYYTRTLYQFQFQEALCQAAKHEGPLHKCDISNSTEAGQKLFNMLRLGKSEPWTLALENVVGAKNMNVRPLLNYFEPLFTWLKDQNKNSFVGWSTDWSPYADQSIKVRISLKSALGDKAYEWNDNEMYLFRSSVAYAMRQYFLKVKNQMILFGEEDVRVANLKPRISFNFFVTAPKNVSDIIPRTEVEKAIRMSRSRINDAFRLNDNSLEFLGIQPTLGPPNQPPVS", "assay": "SPR", "data": [{"substance": "Spike protein (from UniProt P0DTC2)", "values": [{"measurement": "Kd", "result": 0.283, "unit": "nM"}]}]}
